Test results taken from patent US20250002576A1 (FUSION PHARMACEUTICALS, published 2025).

target: T1, hCLDN18.1 (antigen of the scFv screening) (human, UniProt P56856 28-80); experiment: ELISA or flow cytometry, scFv screening
T1 construct: ELISA or flow cytometry according to the selection strategy
T1 sequence (looked up): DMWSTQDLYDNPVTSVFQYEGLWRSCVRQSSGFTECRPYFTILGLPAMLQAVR
Procedure: A naïve human antibody library was used to select CLDN18.2 antibodies and incubated with CLDN18.2 antigen or CLDN18.2-expressing cells for four rounds of biopanning, following the strategy described in Table 3. Monoclonal antibody clones were selected, produced as scFv antibodies, and screened using ELISA (clones identified from Strategy 1 or 2) or flow cytometry (clones identified from Strategy 3 or 4) to identify clones with hCLDN18.2 affinity and no hCLDN18.1 cross-reactivity. 188 such clones were and subsequently sequenced, yielding 68 unique antibodies. The unique antibodies were further screened using flow cytometry to identify clones with mCLDN18.2 affinity, yielding 50 human/mouse cross-reactive antibody clones.

Binder	binding result
YU574-E07 (scFv as screened) (scFv, V domains shown) VH: QVQLQESGGGVVQPGRSLRLSCAASGFTFSSYGMHWVRQAPGKGLEWVAVISYDGSNKYYADSVKGRFTISRDNSKNTLYLQMNSLRAEDTAVYYCAKDQRGGLYGMDVWGQGTLVTVSS VL: QSVLTQPPSASGAPGQRVTISCTGSSSNIGAGYDVHWYQQLPGTAPKLLIYGNSNRPSGVPDRFSGSKSGTSASLAITGLQAEDEADYYCQSYDSSLSGWVFGGGTKLTVL	no binding
YU575-H03 (scFv as screened) (scFv, V domains shown) VH: not shown VL: QSVLTQPPSVSGAPGQRVTISCTGSSSNIGAGYDVHWYQQLPGTAPKLLIYGNSNRPSGVPDRFSGSKSGTSASLAITGLQAEDEADYYCQSYDSSLSGYVFGTGTKLTVL	no binding
YU574-D11 (scFv as screened) (scFv, V domains shown) VH: QVQLVQSGGGLVQPGGSLRLSCAASGFTFSSYAMSWVRQAPGKGLEWVSAISGSGGSTYYADSVKGRFTISRDNSKNTLYLQMNSLRAEDTAVYYCAGGANGFDPWGQGTLVTVSS VL: QSVLTQPPSVSGAPGQRVTISCTGSSSNIGAGYDVHWYQQLPGTAPKLLIYGNSNRPSGVPDRFSGSKSGTSASLAITGLQAEDEADYYCQSYDSSLSGLVFGGGTKLTVL	no binding
YU574-H09 (scFv as screened) (scFv, V domains shown) VH: QVQLVQSGAEVKKPGASVKVSCKASGYTFTSYYMHWVRQAPGQGLEWMGIINPSGGSTSYAQKFQGRVTMTRDTSTSTVYMELSSLRSEDTAVYYCARGGSGFDYWGQGTLVTVSS VL: not shown	no binding
YU577-E12 (scFv as screened) (scFv, V domains shown) VH: not shown VL: DIVMTQSPSFLSASAGDRVTITCRASQGISSYLAWYQQKPGKGPKLLIYAASTLQSGVPSRFSGSGSGTEFTLTISSLQPEDFATYYCQQVNSYPLTFGPGTKVDIK	no binding
YU577-H07 (scFv as screened) (scFv, V domains shown) VH: not shown VL: DIQMTQSPSSVSASVGDRVTITCRASQGISSWLAWYQQKPGKAPKLLIYAASSLQSGVPSRFSGSGSGTDFTLTISSLQPEDFATYYCQQANSFPLTFGGGTKLEIK	no binding
YU578-D01 (scFv as screened) (scFv, V domains shown) VH: not shown VL: DIQLTQSPSSLSASVGDRVTITCRASQGISNYLAWFQQKPGKAPKSLIYAASSLQSGVPSKFSGSGSGTDFTLTISSLQPEDFATYYCQQYNSYPLTFGGGTKVDIK	no binding
YU577-B11 (scFv as screened) (scFv, V domains shown) VH: not shown VL: DIQMTQSPSSVSASVGDRVTITCRASQGISSWLAWYQQKPGKAPKLLIYAASSLQSGVPSRFSGSGSGTDFTLTISSLQPEDFATYYCQQANSFPLTFGGGTKLEIK	no binding
YU574-D03 (scFv as screened) (scFv, V domains shown) VH: not shown VL: DIVMTQSPSSVSASVGDRVTITCRASQGISSWLAWYQQKPGKAPKLLIYAASSLQSGVPSRFSGSGSGTDFTLTISSLQPEDFATYYCQQANSFPLTFGGGTKVDIK	no binding
YU577-B01 (scFv as screened) (scFv, V domains shown) VH: EVQLVESGGGVVQPGRSLRLSCAASGFTFSSYGMHWVRQAPGKGLEWVAVISYDGSNKYYADSVKGRFTISRDNSKNTLYLQMNSLRAEDTAVYYCAKDVTYYYDSSGSPDFDYWGQGTLVTVSS VL: DIQLTQSPSSLSASVGDRVTITCRASQGISNYLAWFQQKPGKAPKSLIYAASSLQSGVPSKFSGSGSGTDFTLTISSLQPEDFATYYCQQYNSYPYSFGQGTKVEIK	no binding
YU577-E08 (scFv as screened) (scFv, V domains shown) VH: QVQLVQSGAEVKKPGASVKVSCKASGYTFTSYYMHWVRQAPGQGLEWMGIINPSGGSTSYAQKFQGRVTMTRDTSTSTVYMELSSLRSEDTAVYYCATRQFDYWGQGTLVTVSS VL: QSVLTQPPSVSAAPGQKVTISCSGSSSNIGNNYVSWYQQLPGTAPKLLIYENNKRPSGIPDRFSGSKSGTSATLGITGLQTGDEADYYCGTWDSSLSAAVFGGGTKVTVL	no binding
YU578-F02 (scFv as screened) (scFv, V domains shown) VH: not shown VL: DIVMTQSPSFLSASVGDRVTITCRASQGISSYLAWYQQKPGKAPKLLIYAASTLQSGVPSRFSGSGSGTEFTLTISSLQPEDFATYYCQQLNSYPITFGQGTKLEIK	no binding

target: lysozyme; experiment: non-specific binding ELISA, lysozyme immobilized
Procedure: DNA, LPS, lysozyme, and cell lysate were immobilized onto microtiter plates. Testing antibodies were added to the wells and incubated. Bound antibodies were detected via a fluorescently-labeled substrate. The fluorescence intensity was normalized to the signal of a control antibody (trastuzumab). Higher normalized signal correlates to stronger off-target or non-specific binding.

Binder	normalized signal (fluorescence intensity normalized to trastuzumab)
YU575-H03 (antibody, V domains shown) VH: not shown VL: QSVLTQPPSVSGAPGQRVTISCTGSSSNIGAGYDVHWYQQLPGTAPKLLIYGNSNRPSGVPDRFSGSKSGTSASLAITGLQAEDEADYYCQSYDSSLSGYVFGTGTKLTVL	0.9
YU574-H09 (antibody, V domains shown) VH: QVQLVQSGAEVKKPGASVKVSCKASGYTFTSYYMHWVRQAPGQGLEWMGIINPSGGSTSYAQKFQGRVTMTRDTSTSTVYMELSSLRSEDTAVYYCARGGSGFDYWGQGTLVTVSS VL: not shown	1.3
YU574-D03 (antibody, V domains shown) VH: not shown VL: DIVMTQSPSSVSASVGDRVTITCRASQGISSWLAWYQQKPGKAPKLLIYAASSLQSGVPSRFSGSGSGTDFTLTISSLQPEDFATYYCQQANSFPLTFGGGTKVDIK	1.1
YU577-H07 (antibody, V domains shown) VH: not shown VL: DIQMTQSPSSVSASVGDRVTITCRASQGISSWLAWYQQKPGKAPKLLIYAASSLQSGVPSRFSGSGSGTDFTLTISSLQPEDFATYYCQQANSFPLTFGGGTKLEIK	1.3
YU578-F02 (antibody, V domains shown) VH: not shown VL: DIVMTQSPSFLSASVGDRVTITCRASQGISSYLAWYQQKPGKAPKLLIYAASTLQSGVPSRFSGSGSGTEFTLTISSLQPEDFATYYCQQLNSYPITFGQGTKLEIK	1
